The nature of the series: yeast display, Sf9 membrane polyspecificity reagent, FACS + sequencing; frameworks hold sequencing errors. Summed up:
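Synthetic nanobody libraries on Saccharomyces cerevisiae BJ5465 were galactose-induced for 36–48 hours, stained 1 hour at 4 °C with 10% biotinylated, detergent-solubilized Sf9 membrane reagent and enriched on streptavidin microbeads. FACS then separated cells into low and high (top ~1%) gates by anti-HA (expression) and streptavidin (reagent binding) fluorescence. Genes were colony-PCR amplified, MiSeq 2 × 250 sequenced and CDR-length filtered. A clone's polyreactivity label is that of its gate of origin.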
As to “QVQLVESGGGLVQAGGSLRLSCAASGFTFSPYTMGWYRQAPGKEWELVATIRYDGTSTYYADSVKGRFTISRDNAKNTVFLQMNSLKPEDTEVYYCAADIWRVYSTIYYWGQGTQVTVSS”, the “polyreactivity (PSR sort gate)” value was “low polyreactivity”.

For “QVQLVESGGGLVQAGGTLRLSGAASGFIFPQYAMGWYRQAPGKERELVAAISTGGGSTYYADSVKGRFTISRDNAKNTVYLQMNSLKPEDTAVYYCNARPKYDSGHYYWGQGTQVTVSS”, the “polyreactivity (PSR sort gate)” value is recorded as “high polyreactivity”.

As for “QVQLVESGGGLVQAGGSLRLSSAASGFIFNTNAMGWYRQAPGKERELVAAISGGGSTYYAVSVKGRFTLSRDNAKQTVYLQMNSLKPDDTAVYYCAAVPFYRYDYWGQGTQVTVSS”, the “polyreactivity (PSR sort gate)” value was “low polyreactivity”.

For the sequence “QVQLVESGGGLVQAGGSLRLSCAASGSTTHYYAMGWYRQAPGKEWELVASITWSVGSTYYADSVKGRFTISRDNAKNTVYLQMNSLKPEVTAVYYCAGRPFPRRYDYWGQGTQVTVSS”, the “polyreactivity (PSR sort gate)” value is “low polyreactivity”.

Take “QVQLVESGGGLVQAGGSLRLSCAASGRTSRFYAMGWYRQAPGKERELVARITTRGGSTYYADSVKGRFTISRDNAKNTVYLQMNSLKPEDTAVYYCNAERAGTYRYDYWGQGTQVTVSS”: the “polyreactivity (PSR sort gate)” value is “high polyreactivity”.

In the case of “QVQLVESGGGLVQAGGSLRLSCAASGRTFYYYAMGWYRQAPGKERELVASISRRGGSTYYADSVKGRFTISRDNAKNTVYLQMNSLKPEDTAVYYCAASHYHGYSLGYDYWGQGTQVTVSS”, the “polyreactivity (PSR sort gate)” value is listed as “high polyreactivity”.

For the sequence “QVQLVESGGGLVQAGGSLRLSCAASGSIFYVYAMGGYRQAPGKERELVAAISKSGGSTYYADSVKGRFTISRDNAKNTVYLQMNRLKPEDTAVYYCAAYFSYGSIIEDYWGQGTQVTVSS”, the “polyreactivity (PSR sort gate)” value is reported as “low polyreactivity”.

Regarding “QVQLVESGGGLVQAGGSLRLSCAASGSTFSYNAMGWYRQAPGKERELVAAITSGSSTNYADSVKGRFTISRDNAKNTVYLQMNSLKPEDTAVYYCAADGYQDKYYWLENWVGYWGQGTQVTVSS”, the “polyreactivity (PSR sort gate)” value was “low polyreactivity”.

Take “QVQLVESWGGLVQAGGSLRLTCAASGRILWFYSMGWYRQAPGKERELVAAISSSSGRTYYADSVKGRYTISRDNAKNTVSLQMNSLKPEDTAVYYCAATHAVARPLEYDYWGQGTQVTVSS”: the “polyreactivity (PSR sort gate)” value is on record as “low polyreactivity”.

Consider “QVHLVESGGGLVQAGGSLRLSGAASGFTFYRYAMGWSRQAPGKERELVAAITSGAITYYADSVKGRFTISRDNAKNTVYLQMNSLKPEETAVYYCNAVYRVAAIVRYDYWGQGTQVTVSS”, for which the “polyreactivity (PSR sort gate)” value is “high polyreactivity”.

For the sequence “QVQLVESGGGLVQAGGSLRLSCAASGSTFPRNAMGWYRQAPGKEWELVAAISGRGVRTYYADSVKGRFTISSDNAKNTVNFQMYSLKPEDTAVYYCAASRGKGVGLAYDYWGQGTQVTVSS”, the “polyreactivity (PSR sort gate)” value was “high polyreactivity”.

Regarding “QVQLVESGGGLVQAGGSLRLSCAASGRISIWYDMGWYIQAPGKEREFVASITSGGSTYADSVKGRFTISRDNAKNTVYLQMNSLKPEDTAVYYCAADEAPYVPSEQRHSRFSHWGQGTQVTVSS”, the “polyreactivity (PSR sort gate)” value is “low polyreactivity”.

Turning to “QVQLVESGGGLVQAGGSLRLSCAASGSTFPYYVMGWYRQAPGKERELVAAISWSGASTYYADSVKGRFTISRDNAKNTVYLQMNSLKPEDTAVYYCNRPKWYDGDYWGQGTQVTVSS”, the “polyreactivity (PSR sort gate)” value is “high polyreactivity”.

As to “QVQLVESCGGLVQAGGRLRLSCADYGRTFSWYAMGSYRQAPGKERELVAAITFRGGRTYYADSVKGRFTISRDNAKNTVYIQMNSLKPEDTAVYYFNAVTYSSPYRFDYCGQGTQVTVSS”, the “polyreactivity (PSR sort gate)” value was “low polyreactivity”.

As for “QDQLVESGGGLVQAGGIHRLICDSSGFIFWDNAMGCSRQAPGKEREFVAAISQRCTRTYYADSVKGRFTISRDNAKKTVFFPLNSLKPEDTGVYYCNRGGWRQFDSWGQGTQVTVSS”, the “polyreactivity (PSR sort gate)” value is on record as “high polyreactivity”.

Regarding “QVQLVESGGGLVQAGGSLRLSCAASGSTIVRYVMGWYRQAPGKERELVAAISRRGGSTYYADSVKGRFTISRDNAKNTVYLQMNSLKPEDTAVYYCARTVGYRTLLESDSWGQGTQVTVSS”, the “polyreactivity (PSR sort gate)” value is listed as “high polyreactivity”.

The values above are taken from the nanobody polyreactivity screen of Harvey et al. (2022).
